We go through one substance from publication PMC7954978.

For this assay, the target named is GltPh-XL2 (cysteine-less GltPh with L152C and G351C) (UniProt O59010). The assay can be described thus: cryo-EM structure.

Regarding “GltPh-XL2 (cysteine-less GltPh with L152C and G351C) (from UniProt O59010 1-417) (natural protein)”, the stoichiometry N amounted to 3.
